One assay addresses T1, human PD-L1 on CHO cells (human, UniProt Q9NZQ7 19-290).
T1 construct: also called CHO-PD-L1 cells
In words: FIG. 4: Octet avidity curves and FACS on CHO-PD-L1 cells. The method, then: (§1) Antibody Activity. Varying concentrations of PD-L1 antibodies, with human IgG1 backbones, were added to CHO cells expressing either human or murine PD-L1 (CHO-PD-L1 cells). Binding was detected by addition of anti-human IgG1 secondary antibody conjugated to phycoerythrin. FACS analysis was performed, detecting phycoerythrin to determine fluorescence activity at a variety of antibody concentrations. EC50 was calculated using GraphPad Prism® software.
(Biolayer interferometry detects binding as a change in optical thickness at a sensor tip.)

Assay [1] deals with T2, murine PD-L1 on CHO cells (murine, UniProt Q9EP73 19-290).
T2 construct: whole, on cells; also called CHO-PD-L1 cells
In words: FIG. 4 legend: Octet avidity curves and FACS on CHO-PD-L1 cells. Here is the method: as §1

T2 sequence (Q9EP73 19-290): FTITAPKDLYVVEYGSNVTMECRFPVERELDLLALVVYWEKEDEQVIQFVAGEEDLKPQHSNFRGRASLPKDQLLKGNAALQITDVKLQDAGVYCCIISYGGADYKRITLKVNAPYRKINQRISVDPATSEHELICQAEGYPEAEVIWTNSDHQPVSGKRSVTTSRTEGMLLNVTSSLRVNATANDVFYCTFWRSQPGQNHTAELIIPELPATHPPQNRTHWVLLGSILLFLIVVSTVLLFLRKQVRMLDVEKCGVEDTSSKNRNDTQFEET
T1 sequence (Q9NZQ7 19-290 limits assumed): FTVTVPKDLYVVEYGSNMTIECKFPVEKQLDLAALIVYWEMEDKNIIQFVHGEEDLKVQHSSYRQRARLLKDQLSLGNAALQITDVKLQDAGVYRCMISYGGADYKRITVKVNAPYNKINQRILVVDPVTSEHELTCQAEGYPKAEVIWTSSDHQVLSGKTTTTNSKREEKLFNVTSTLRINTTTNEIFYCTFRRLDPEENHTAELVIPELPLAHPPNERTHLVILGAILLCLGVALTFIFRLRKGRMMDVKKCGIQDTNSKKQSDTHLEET

B1: ADI-20799 (antibody, human IgG1, V domains shown)
VH: QVQLVQSGAEVKKPGASVKVSCKASGYTFTGVYMHWVRQAPGQGLEWMGGIFPIGGTANYAQKFQGRVTITADESTSTAYMELSSLRSEDTAVYYCARDRTSGALYWGQGTLVTVSS
VL: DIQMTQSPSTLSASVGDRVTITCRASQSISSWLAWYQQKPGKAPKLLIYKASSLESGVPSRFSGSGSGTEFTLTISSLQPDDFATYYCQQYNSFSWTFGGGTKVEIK
For B1, the binding result (with human PD-L1 on CHO cells; in assay [1]) was “binds” each time.

Values taken from patent US20250320296A1 (published 2025).
